This note sets out measurements from patent US11123413B2, “Carbapenemases for use with antibiotics for the protection of the intestinal microbiome” (priority 2015, dated 2021).

Several values for one entry are separate records, joined by “and”; a condition that tells them apart may be missing. Identical values can stand only once. Bounds are passed on as bounds.

Series [1] in a line: P2A enteric-coated pellets and intravenous cefotaxime in jejunal-fistulated dogs. It is filed as in vivo, laboratory beagles. The settings on record: enteric-coated pellets, 0.5 mg/kg or 0.25 mg/kg P2A, intravenous cefotaxime 120 mg/kg. How it is done: An enteric-coated pellet formulation of P2A was produced using methods similar to that used successfully for the production of the P1A enteric-coated pellets (e.g. sucrose core particles, pH-dependent polymer Eudragit L 30 D-55 coating, see Tarkkanen, Antimicrobial Agents and Chemotherapy, June 2009, p. 2455-2462, the entire contents of which are hereby incorporated by reference).
The ability of P2A to degrade cefotaxime in the dog intestinal tract was evaluated using laboratory beagles that had permanent jejunal fistulas. The fistulas allowed the repeated collection of jejunal chyme specimens from these animals. Dogs were treated with peroral P2A enteric-coated pellets at two doses, 0.5 mg/kg or 0.25 mg/kg of P2A content and/or intravenous cefotaxime (120 mg/kg). The dosing was performed twice. Animals were fed 20 minutes before P2A was delivered orally. Each animal received 3-5 P2A capsules, dependent on the P2A dose and the body weight. Cefotaxime was delivered intravenously 10 minutes after P2A administration. […] Cefotaxime levels in chyme were measured using a plate diffusion method using cefotaxime susceptible Micrococcus luteus TS504 as the test strain. P2A activity levels in chyme were determined spectrophotometrically using meropenem as a substrate. Meropenem hydrolysis was monitored at a wavelength of 297 nm.

For series [2], the system named is E. coli (ATCC 25922). Put plainly: Antibiotic inactivation screening assay via E. coli growth (96 well plate, OD625). The settings on record: 10 ng/ml or 100 ng/ml enzyme (FIG. 35). It is filed as cell-based.
Series [3] in a line: P2A stability in human chyme (CENTA). It is filed as in vitro ADME. How it is done:
The stability of purified P2A when incubated in human chyme at 37° C. was evaluated by assessing aliquots withdrawn from incubated samples at 0, 0.5, 1, 2, 3, 4, 5, and 6 hours for beta-lactamase activity using a CENTA beta-lactamase substrate. Five different chyme specimens were used for evaluation of stability. The mixed chyme sample contained equal volumes of each of the five chime specimens mixed together. Chyme samples were characterized for pH, liquid content, and protease activity (Table 20).

The nature of series [4]: Oral P2A and intravenous meropenem in jejunal-fistulated dogs. The class given is in vivo, laboratory beagles. How it is done:
The ability of P2A to degrade meropenem in the dog intestinal tract was evaluated using laboratory beagles that had permanent jejunal fistulas. The fistulas allowed the repeated collection of jejunal chyme specimens from these animals. Dogs were treated with peroral P2A (1 mg/kg) in a liquid formulation (PBS buffer), and/or intravenous meropenem (30 mg/kg). Serum samples were collected and serum meropenem levels quantified. Jejunal chyme samples were collected and meropenem and P2A levels were quantified. Meropenem levels in serum and chyme were measured using a plate diffusion method using meropenem susceptible Micrococcus luteus TS504 as the test strain. P2A activity levels in chyme were determined spectrophotometrically using meropenem as a substrate. Meropenem hydrolysis was monitored at a wavelength of 297 nm.

Series [5] can be described thus: Oral P2A and intravenous cefotaxime in jejunal-fistulated dogs. It is filed as in vivo, laboratory beagles. The settings on record: peroral P2A 1 mg/kg, intravenous cefotaxime 60 mg/kg, omeprazole. How it is done:
The ability of P2A to degrade cefotaxime in the dog intestinal tract was evaluated using laboratory beagles that had permanent jejunal fistulas. The fistulas allowed the repeated collection of jejunal chyme specimens from these animals. Dogs were treated with peroral P2A (1 mg/kg) in a liquid formulation (PBS buffer), and/or intravenous cefotaxime (60 mg/kg). A single dose of omeprazole (10 mg) was delivered orally to each dog prior to treatment with ceftriaxone and/or P2A to inhibit the HCl activity in the stomach to potentially reduce P2A degradation. Serum samples were collected and serum cefotaxime levels quantified. Jejunal chyme samples were collected and cefotaxime and P2A levels were quantified. Cefotaxime levels in serum and chyme were measured using a plate diffusion method using cefotaxime susceptible Micrococcus luteus TS504 as the test strain. P2A activity levels in chyme were determined spectrophotometrically using meropenem as a substrate. Meropenem hydrolysis was monitored at a wavelength of 297 nm.

Series [6] is described as follows: KPC and NDM stability in mixed human chyme versus buffer (CENTA). The note with it: 100 μM ZnSO4, 37° C., 80 ng/mL. It is filed as in vitro ADME. As for the experimental part: The stability of KPC and NDM in human chyme at 37° C. was evaluated by adding purified KPC or NDM (final concentration of 80 ng/mL) to mixed human chyme that contained equal volumes of each of five human chyme specimens collected from five different donors. ZnSO4 was added to the mixed chyme for a final concentration of 100 μM ZnSO4. Aliquots of the enzyme/chyme mixture were collected at 0, 30, 60, 120, 180, and 240 minutes of incubation and evaluated for beta-lactamase activity with a chromogenic assay using the CENTA reagent as the substrate. The biological activity of the enzymes in the mixed chyme was compared to the activity in buffer (HEPES buffer, 100 μM ZnSO4 pH 6.2).

Series [7] is described as follows: NDM in dilutions of mixed human chyme with and without protease inhibitors (SDS-PAGE, CENTA). The class given is in vitro ADME. The note with it: 30 minutes. As for the experimental part:
NDM activity was lost immediately upon incubation in the mixed human chyme (FIG. 24). To determine if the loss in activity was due to digestion by proteases present in the human chyme, purified NDM (100 ug/ml) was incubated for 30 minutes with dilutions of human mixed chyme ranging from 100% to 0% chyme in the absence or presence of a serine protease inhibitor cocktail (SigmaFAST protease inhibitors cocktail without EDTA (Sigma-Aldrich catalog number S8830). All incubations were performed in the presence of 100 μM ZnSO4 (final concentration). Samples removed at 30 minutes were transferred to lamelli sample buffer containing beta mercaptoethanol for analysis of protein degradation by gel electrophoreses and staining with coomassie blue. The remaining samples were snap frozen and used for evaluation of beta lactamase activity using a CENTA substrate (FIG. 25). […] In addition, most of the activity of NDM was retained at chyme dilutions of 3.13% or less (FIG. 25, panel A). In the presence of protease inhibitors, the majority of the NDM activity was retained at chyme dilutions of 50% or less.

The mark [8] stands for this setting: peak level in dog jejunum, meropenem 30 mg/kg IV + P2A 1 mg/kg PO, individual dogs.
[9] abbreviates: peroral P2A 1 mg/kg, intravenous meropenem 30 mg/kg.

B1: P2A: broad spectrum carbapenemase, class B metallo-enzyme requiring zinc, SEQ ID NO: 37; P2A-21 = product of strain SYT-PP0602-21 (protein)
chain: ETGTISISQLNKNVWVHTELGYFNGEAVPSNGLVLNTSKGLVLVDSSWDNKLTKELIEMVEKKFQKRVTDVIITHAHADRIGGITALKERGIKAHSTALTAELAKNSGYEEPLGDLQTITSLKFGNTKVETFYPGKGHTEDNIVVWLPQYQILAGGCLVKSAEAKDLGNVADAYVNEWSTSIENVLKRYGNINSVVPGHGEVGDKGLLLHTLDLLK
For B1, in series [1], the “cefotaxime degradation in the intestinal tract” value is “degraded cefotaxime” and the “overall cefotaxime levels in chyme” value is given as “lower overall levels of cefotaxime in their chyme”. Moreover, the “activity against cephalosporins compared to SYN-004 or P4A” value in series [2] was “not as active against the cephalosporins, cefozolin, cefoperazone, cefepime, and ceftazidime”. Besides, the “activity in chyme 3 sample” value in series [3] (chyme 3 (pH 5.6)) is listed as “rapidly declined”. The “stability in pH-adjusted chyme 3” value in series [3] (chyme 3 adjusted to pH 7.0 using NaOH) was “improved”. Further, the “beta-lactamase activity in individual chyme samples” value in series [3] (five individual human chyme samples, 100 uM ZnSO4) was “relatively stable in four of five individual chyme samples”. Further, in series [3] (mixed human chyme, no added zinc, 37° C.), the “beta-lactamase activity in mixed chyme without additional zinc” value was “declined more rapidly”. The “jejunal P2A concentration at which meropenem was not detected” value in series [4] (intestinal samples, dogs) is on record as “at least 0.5 U/g”. In series [4] (setting [8]), the “Meropenem” value is 0 ug/ml (2×) and 2.0 ug/ml; the “P2A (U/g)” value was 0.5 U/g and 0.2 U/g and 80 U/g. Further, in series [4] (setting [9]), the “effect on serum levels of meropenem” value is on record as “does not reduce serum levels of meropenem” and the “meropenem in jejunal chyme” value is “degraded meropenem”. In addition, in series [5], the “cefotaxime in jejunal chyme” value is given as “degraded cefotaxime” and the “effect on serum levels of cefotaxime” value is reported as “does not reduce serum levels of cefotaxime”.

B2: NDM: New Delhi metallo-β-lactamase NDM-1; NDM-68 = product of strain STY-NP1602-68 (STII Δ35, N-terminal GQQMETG) (protein)
chain: GQQMETGDQRFGDLVFRQLAPNVWQHTSYLDMPGFGAVASNGLIVRDGGRVLVVDTAWTDDQTAQILNWIKQEINLPVALAVVTHAHQDKMGGMDALHAAGIATYANALSNQLAPQEGMVAAQHSLTFAANGWVEPATAPNFGPLKVFYPGPGHTSDNITVGIDGTDIAFGGCLIKDSKAKSLGNLGDADTEHYAASARAFGAAFPKASMIVMSHSAPDSRAAITHTARMADKLR
For the molecule B2, the “time by which activity was lost / not detectable” value in series [6] was no more than 30 min. For the same molecule, the “chyme dilution at which the majority of the activity was retained” value in series [7] (in the presence of protease inhibitors) was no more than 50%. Also, the “chyme dilution at which most of the activity was retained” value in series [7] (without protease inhibitors) was no more than 3.13%. Further, the “chyme dilution at which intact protein could be detected” value in series [7] (without protease inhibitors, SDS-PAGE) was no more than 6.25%.
